T1: Cynomolgus CXCR2 (cynomolgus, UniProt Q28519 3-353 (rhesus entry))
T1 chain: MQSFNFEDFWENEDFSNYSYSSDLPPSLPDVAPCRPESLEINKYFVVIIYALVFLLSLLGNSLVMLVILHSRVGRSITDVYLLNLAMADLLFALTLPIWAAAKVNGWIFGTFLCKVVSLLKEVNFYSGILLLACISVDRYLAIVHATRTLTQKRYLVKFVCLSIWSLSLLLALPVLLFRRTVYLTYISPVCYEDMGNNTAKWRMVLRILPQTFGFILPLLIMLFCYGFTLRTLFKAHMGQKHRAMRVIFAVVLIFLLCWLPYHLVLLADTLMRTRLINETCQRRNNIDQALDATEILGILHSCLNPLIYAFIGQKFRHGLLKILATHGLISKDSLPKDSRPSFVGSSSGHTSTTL

T2: Human CXCR2 (human, UniProt P25025 1-360)
T2 sequence: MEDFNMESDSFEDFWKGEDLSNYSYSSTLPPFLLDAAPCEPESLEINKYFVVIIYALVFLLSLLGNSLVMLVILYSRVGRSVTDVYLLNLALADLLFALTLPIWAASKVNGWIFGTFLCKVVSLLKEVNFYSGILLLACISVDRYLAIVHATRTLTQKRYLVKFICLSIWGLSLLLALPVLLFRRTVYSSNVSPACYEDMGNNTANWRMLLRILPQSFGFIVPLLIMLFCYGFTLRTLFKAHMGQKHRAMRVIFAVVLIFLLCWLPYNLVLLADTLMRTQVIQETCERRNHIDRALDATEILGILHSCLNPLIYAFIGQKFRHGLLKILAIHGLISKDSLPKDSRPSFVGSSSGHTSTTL

B1: CXCR20025 (bispecific antibody)
chain: EVQLVESGGGLVQAGGSLRLSCAASGRTFSDYAMGWFRQAPGKEREFVAAITWNGGRVFYTASVKGRFTISRDNAKNTMYLQMNSLKPEDTAVYYCAADKDRRTDYLGHPVAYWGQGTQVTVSSGGGGSGGGGSGGGGSGGGGSGGGGSGGGGSGGGGSEVQLVESGGGLVQAGESLRLSCAASGSTFDFKVMGWYRQPPGKQREGVAAIRLSGNMHYAESVKGRFTISKANAKNTVYLQMNSLRPEDTAVYYCKVNIRGQDYWGQGTQVTVSS
notes: Biparatopic: two VHH joined by a GlySer linker; also called 163D2-35GS-127D1; not shown: C-terminal c-myc tag and His6 tag coded by pAX100
B2: CXCR20022 (VHH)
chain: EVQLVESGGGLVQAGGSLRLSCAASGRTFSDYAMGWFRQAPGKEREFVAAITWNGGRVFYTASVKGRFTISRDNAKNTMYLQMNSLKPEDTAVYYCAADKDRRTDYLGHPVAYWGQGTQVTVSSGGGGSGGGGSGGGGSGGGGSGGGGSGGGGSGGGGSEVQLVESGGGLVQAGGSLRLSCAASGRTFSDYAMGWFRQAPGKEREFVAAITWNGGRVFYTASVKGRFTISRDNAKNTMYLQMNSLKPEDTAVYYCAADKDRRTDYLGHPVAYWGQGTQVTVSS
notes: Bivalent: two VHH joined by a GlySer linker; also called 163D2-35GS-163D2; not shown: C-terminal c-myc tag and His6 tag coded by pAX100
B3: CXCR20024 (VHH)
chain: EVQLVESGGGLVQPGGSLRLSCVASGRIFSSNAMGWFRQAPGKEREFVAAITWRSGGSAYYADSAKGRFTISRDNAKNTVYLQMNSLKPEDTAVYYCAAGGSSWLSFPPDYWGQGTQVTVSSGGGGSGGGGSGGGGSGGGGSGGGGSGGGGSGGGGSEVQLVESGGGLVQPGGSLRLSCVASGRIFSSNAMGWFRQAPGKEREFVAAITWRSGGSAYYADSAKGRFTISRDNAKNTVYLQMNSLKPEDTAVYYCAAGGSSWLSFPPDYWGQGTQVTVSS
notes: Bivalent: two VHH joined by a GlySer linker; also called 163E3-35GS-163E3; not shown: C-terminal c-myc tag and His6 tag coded by pAX100
B4: CXCR20032 (bispecific antibody)
chain: EVQLVESGGELVQPGGSLRLSCAASGSILTINAMGWYRQAPGKQRELVVRRTRGGSTTYQDSVKGRFTISADIAKKTMYLQMNSLKPEDTAVYYCMLDDRGGVYWGQGTQVTVSSGGGGSGGGGSGGGGSGGGGSGGGGSGGGGSGGGGSEVQLVESGGGLVQAGGSLRLSCAASGRTFSDYAMGWFRQAPGKEREFVAAITWNGGRVFYTASVKGRFTISRDNAKNTMYLQMNSLKPEDTAVYYCAADKDRRTDYLGHPVAYWGQGTQVTVSS
notes: Biparatopic: two VHH joined by a GlySer linker; also called 2B2-35GS-163D2; not shown: C-terminal c-myc tag and His6 tag coded by pAX100
B5: CXCR20023 (bispecific antibody)
chain: EVQLVESGGGLVQAGGSLRLSCAASGRTFSDYAMGWFRQAPGKEREFVAAITWNGGRVFYTASVKGRFTISRDNAKNTMYLQMNSLKPEDTAVYYCAADKDRRTDYLGHPVAYWGQGTQVTVSSGGGGSGGGGSGGGGSGGGGSGGGGSGGGGSGGGGSEVQLVESGGGLVQPGGSLRLSCVASGRIFSSNAMGWFRQAPGKEREFVAAITWRSGGSAYYADSAKGRFTISRDNAKNTVYLQMNSLKPEDTAVYYCAAGGSSWLSFPPDYWGQGTQVTVSS
notes: Two different VHH joined by a GlySer linker; also called 163D2-35GS-163E3; not shown: C-terminal c-myc tag and His6 tag coded by pAX100
B6: CXCR20031 (bispecific antibody)
chain: EVQLVESGGELVQPGGSLRLSCAASGSILTINAMGWYRQAPGKQRELVVRRTRGGSTTYQDSVKGRFTISADIAKKTMYLQMNSLKPEDTAVYYCMLDDRGGVYWGQGTQVTVSSGGGGSGGGGSGGGGSGGGGSGGGGSGGGGSGGGGSEVQLVESGGGLVQPGGSLRLSCVASGRIFSSNAMGWFRQAPGKEREFVAAITWRSGGSAYYADSAKGRFTISRDNAKNTVYLQMNSLKPEDTAVYYCAAGGSSWLSFPPDYWGQGTQVTVSS
notes: Biparatopic: two VHH joined by a GlySer linker; also called 2B2-35GS-163E3; not shown: C-terminal c-myc tag and His6 tag coded by pAX100
B7: CXCR20021 (bispecific antibody)
chain: EVQLVESGGGLVQAGESLRLSCAASGSTFDFKVMGWYRQPPGKQREGVAAIRLSGNMHYAESVKGRFTISKANAKNTVYLQMNSLRPEDTAVYYCKVNIRGQDYWGQGTQVTVSSGGGGSGGGGSGGGGSGGGGSGGGGSGGGGSGGGGSEVQLVESGGGLVQPGGSLRLSCVASGRIFSSNAMGWFRQAPGKEREFVAAITWRSGGSAYYADSAKGRFTISRDNAKNTVYLQMNSLKPEDTAVYYCAAGGSSWLSFPPDYWGQGTQVTVSS
notes: Biparatopic: two VHH joined by a GlySer linker; also called 127D1-35GS-163E3; 127D1-163E3; not shown: C-terminal c-myc tag and His6 tag coded by pAX100
B8: 143A5 (VHH)
VHH: KVQLVESGGGLVQAGGSLRLSCAASGRAFNYYVMAWFRQAQGKEREFVAAISTRGSMTKYSDSVQGRFTISRDNAKNTVYLHMNSLKPEDTAVYYCAADPRGSSWSFSSGGYDYWGQGTQVTVSS
notes: Tested as periplasmic extract only; also called 143A05; not shown: C-terminal c-myc tag and His6 tag coded by the vector
B9: 143B3 (VHH)
VHH: EVQLVESGGGLVQPGGSLRLSCAASGFTFSTYWMYWVRQAPGKGLDWVSAINAGGDSTYYADPVKGRFTISRDNNKNTLYLQMNSLKPEDTALYYCATVRGTARDLDYWGQGTQVTVSS
notes: Tested as periplasmic extract only; also called 143B03; not shown: C-terminal c-myc tag and His6 tag coded by the vector
B10: 145D3 (VHH)
VHH: EVQLVESGGGLVQAGGSLSLSCAASGLIFRLSGMAWYRQAPGRQREWVAVLTKDGTLHYADPVKGRFTISRNNAENTWYLQMNSLKPEDTAIYYCNTGRYWGQGTQVTVSS
notes: Tested as periplasmic extract only; also called 145D03; not shown: C-terminal c-myc tag and His6 tag coded by the vector
B11: 126B11 (VHH)
VHH: EVQLVESGGGLVQAGGSLTLSCAVSGSSFRINTMGWYRRAPGKQRELVAARDRGGYINYVDSVKGRFTVSRDNAKPTMYLQMNSLKPEDTAVYYCHAGTQDRTGRNFDHWGQGTQVTVSS
notes: Tested as periplasmic extract only; not shown: C-terminal c-myc tag and His6 tag coded by the vector
B12: 145C9 (VHH)
VHH: EVQLVESGGGLVQAGGSLRLSCAASGFTFDDYAIGWFRQAPGKERERVSCISGSDGSTYYADSVKGRFTISSDNAKNTVYLQMNNLKPEDTAVYYCAAYWGLTLRLWMPPHRYDYWGQGTQVTVSS
notes: Tested as periplasmic extract only; also called 145C09; not shown: C-terminal c-myc tag and His6 tag coded by the vector

Molecular target: T1, Cynomolgus CXCR2
Experiment: cell-based or functional assay

FLIPR % inhibition of max | FLIPR IC50 (GRO-α induced calcium release) | Binder
100% | 7.88 nM | B1
100% | 8.64 nM | B2
100% | 11.8 nM | B3
100% | 3.65 nM | B4
100% | 12 nM | B5
100% | 4.26 nM | B6
100% | 2.31 nM | B7

molecular target: T2, Human CXCR2; experiment: cell-based or functional assay

FLIPR % inhibition of max | FLIPR IC50 (GRO-α induced calcium release) | Binder
100% | 12.2 nM | B1
100% | 9.34 nM | B2
100% | 26.4 nM | B3
100% | 14.7 nM | B4
100% | 14.8 nM | B5
100% | 15.2 nM | B6
100% | 7.32 nM | B7

molecular target: T2, Human CXCR2; experiment: FACS, periplasmic extract vs FMAT Blue Gro-α
Procedure: Periplasmic extracts (as described above) were analyzed on FACS for competition with Gro-α in binding to human CXCR2. 2×10⁵ cells were incubated with a ½ dilution of periplasmic extracts in FACS buffer (PBS+10% fetal bovine serum (Sigma, F7524)) for 30 minutes at 4° C. Then, an equal volume of 6 nM of FMAT Blue-labeled human Gro-α in FACS buffer was added and incubation was continued for another 30 minutes at 4° C. in the dark. Cells were then washed three times in FACS buffer and finally resuspended in FACS buffer. Dead cells were stained with propidium iodide (Sigma, P4170). Samples were then analyzed on a FACSarray (BD Biosciences).

FACS Gro-α competition (% inhibition) | Binder
72.6% | B8
70.8% | B9
77.9% | B10
36.9% | B11
53.5% | B12

molecular target: T2, Human CXCR2; experiment: cell-based or functional assay; remark: another data set of the same source

[35S]GTPγS % inhibition of max (GRO-α) | [35S]GTPγS IC50 (GRO-α) | [35S]GTPγS % inhibition of max (ENA-78) | [35S]GTPγS % inhibition of max (IL-8) | [35S]GTPγS IC50 (ENA-78) | [35S]GTPγS IC50 (IL-8) | Binder
100% | 0.891 nM | – | – | – | – | B1
100% | 28.5 nM | – | – | – | – | B2
100% | 30.3 nM | – | – | – | – | B3
– | – | 100% | 100% | 0.116 nM | 0.997 nM | B4
100% | 26.6 nM | – | – | – | – | B5
– | – | 100% | 100% | 1.38 nM | 0.84 nM | B6
100% | 0.551 nM | 100% | 100% | 0.787 nM | 0.827 nM | B7

Molecular target: T1, Cynomolgus CXCR2
Experiment: FACS competition vs 3 nM FMAT-Blue Gro-α
Procedure: (§1) Multivalent anti-CXCR2Nanobodies were titrated against 3 nM FMAT-Blue-labeled Gro-α in the FACS ligand competition assay on human and cynomolgus CXCR2 (Table 14). On human CXCR2, blocking potencies range between double digit nM and sub-nM whereas on cynomolgus CXCR2, they range between single and double digit nM.

% inhibition of max | IC50 | Binder
98.5% | 2.08 nM | B1
98% | 8.01 nM | B2
95% | 5.32 nM | B3
99% | 1.91 nM | B4
96% | 6.61 nM | B5
99% | 1.98 nM | B6
98.5% | 1.85 nM | B7

molecular target: T2, Human CXCR2; experiment: FACS competition vs 3 nM FMAT-Blue Gro-α
Procedure: as §1

% inhibition of max | IC50 | Binder
99% | 0.9 nM | B1
100% | 4.14 nM | B2
99% | 5.27 nM | B3
100% | 0.5 nM | B4
99% | 4.28 nM | B5
100% | 0.49 nM | B6
99.5% | 1.09 nM | B7
